B1: Magnesium chelatase (recombinant) (natural protein, M. smegmatis, UniProt A0R3L1 1-461, looked up)
chain: MVSQPKDLPRTVGELRASGHRERGVKAEIRENLLAALAERRDVWPGILGFEDTVIPQLERALIAGHDVVLLGERGQGKTRLLRALTGLLDEWTPVIAGSELGEHPYSPITPESIRRAADSGDDLPVEWRHRSERYTEKLATPDTSVADLVGDIDPIKVAEGRSLGDPETIAYGLIPRAHRGIVAVNELPDLAERIQVAMLNVMEERDIQVRGYTLRLPLDVLVVASANPEDYTNRGRIITPLKDRFGAEIRTHYPLELEAEVGVIRQEAELAAEVPEYLLAVLARFARNLRESNSIDQRSGVSARFAIAAAETVAASARHRAAILGEDDPVARVVDLGTVIDVLRGKLEFETGEEGREQAVLEHLLRRATADTAQRLLGGIDVGPLVAAIEEGSPVTTGERVSAKDVVAALPDLPAIDAIAHRLNAVSVGQRAAAIELALEALYLAKRIDKVSGEGETVYG
notes: H7-SUMO tags were removed with Ulp1 or left intact for microscale thermophoresis; also called Mg chelatase
B2: XRE (recombinant) (natural protein, M. smegmatis, UniProt A0QQY3 1-142, looked up)
chain: MAQDENLAAVVSNAAQDIGSFIRAQREAAQVSVRQLAEKAGVSNPYLSQIERGLRKPSADVLNQIAKALRVSAEVLYVRAGILEPSEPSEVRDAIVNDVSITERQKQVLLDIYTSFRQQNEAAGEPEGAAVIPSPDEEPATD
notes: H7-SUMO tags were removed with Ulp1 or left intact for microscale thermophoresis; also called Transcriptional regulator, XRE family protein
B3: DnaJ1 (recombinant) (natural protein, M. smegmatis, UniProt A0QQD0 1-390, looked up)
chain: MAQREWVEKDFYKELGVSSDASADEIKKAYRKLAAELHPDRNSDPGAAERFKAVSEANSVLSDPAKRKEYDETRRLFAGGFGRRFNQGGGGFGGGFGSDGVEFNLGDLFDAAGQTGGANIGDLFGGLFGRGPQQRPSRPRRGNDLETETELSFLEATKGVAMPLRLTSPAPCTNCHGSGARPGTSPKVCPSCNGSGVISRNQGAFGFSEPCTECRGSGSIIEHPCQECRGTGVTTRTRTINVRIPPGVEDGQRIRLAGQGEAGLRGAPSGDLYVTVHVRPDKVFGRDGDDLTVTVPVSFHELALGTTLSVPTLDGKVGVRVPKGTSDGRILRVRGRGVPKRSGGHGDLLVTVKVAVPPNLEGEAAEALEAYAKAERASGFDPRAGWAGNV
notes: H7-SUMO tags were removed with Ulp1 or left intact for microscale thermophoresis; also called Chaperone protein DnaJ1

Biological target: T1, ^H7-SUMOClpC1^FLAG (recombinant ClpC1) (M. smegmatis, UniProt A0R574 1-848)
T1 construct: ClpC1 unfoldase, M. smegmatis; used at 0.1 uM (hexamer) in microscale thermophoresis; In the degradation assays (functional rows) ClpC1 stood with ClpP1P2 and its H7-SUMO tag may have been removed; not shown: H7-SUMO, N-terminal, kept; FLAG, C-terminal, kept
Assay: MST; Monolith NT.115; 0.1 uM ^H7-SUMOClpC1^FLAG (hexamer) with 0.1 uM His Lite OG488-Tris-NTA-Ni dye, partner titrated; fit to a Hill-form binding equation; apparent (Kapp)
Conditions: both partners purified

T1 sequence (A0R574 whole entry): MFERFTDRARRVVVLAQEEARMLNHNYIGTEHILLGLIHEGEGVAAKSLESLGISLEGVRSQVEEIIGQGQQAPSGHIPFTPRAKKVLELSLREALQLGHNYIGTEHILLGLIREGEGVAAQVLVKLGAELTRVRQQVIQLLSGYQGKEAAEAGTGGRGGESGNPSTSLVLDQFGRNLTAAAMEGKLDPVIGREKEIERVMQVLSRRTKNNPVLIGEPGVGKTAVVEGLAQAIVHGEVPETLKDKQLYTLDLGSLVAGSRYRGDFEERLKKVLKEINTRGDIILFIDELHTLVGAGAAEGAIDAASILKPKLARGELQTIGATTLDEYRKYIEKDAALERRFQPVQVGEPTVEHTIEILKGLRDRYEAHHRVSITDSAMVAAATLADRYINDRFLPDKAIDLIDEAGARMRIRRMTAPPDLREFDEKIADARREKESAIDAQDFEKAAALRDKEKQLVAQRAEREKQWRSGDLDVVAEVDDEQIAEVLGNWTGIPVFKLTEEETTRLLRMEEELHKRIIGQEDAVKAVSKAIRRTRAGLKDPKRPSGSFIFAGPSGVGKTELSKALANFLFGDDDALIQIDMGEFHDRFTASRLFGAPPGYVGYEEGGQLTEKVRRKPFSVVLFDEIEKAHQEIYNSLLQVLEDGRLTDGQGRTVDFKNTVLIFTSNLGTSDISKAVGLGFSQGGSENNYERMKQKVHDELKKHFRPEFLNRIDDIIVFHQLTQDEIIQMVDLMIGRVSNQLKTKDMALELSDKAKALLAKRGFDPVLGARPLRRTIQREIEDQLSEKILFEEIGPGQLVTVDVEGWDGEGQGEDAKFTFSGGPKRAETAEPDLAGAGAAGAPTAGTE

Q: Does B1 bind?
A: Result: binds

Q: Does B2 bind?
A: Result: binds

Q: Does B3 bind?
A: Result: binds
